Assay results: US9597407B2, “Targeted antimicrobial moieties” (C3 Jian, Inc., priority 2009, dated 2017)
“Also recorded” adds a separate entry of the source. Bridge positions count the residues as written; N and C are the ends. Square brackets hold non-standard residues; d marks the D form. Ends that are not written are not given here. Peptide text beside a SMILES is read from it. I, II: the chains in the order shown. Aoc = NCCCCCCCC(=O)O

B1: PF-749 (peptide)
chain 1: GVNKWWEEHNKAKLWKNVKGKFLEGEGEEEDDE
chain 2: B1 chain 1
modifications: Peptide with targeting and/or antimicrobial activity
B2: PF-763 (peptide)
chain 1: GIWMARNYFHRSSIRKVYVESDKEYERVHPMQKIQYEGNYKSQ
chain 2: B2 chain 1
modifications: Peptide with targeting and/or antimicrobial activity
B3: PF-745 (peptide)
chain 1: ANSQNSLFSNRSSFKSIFDKKSNITTNATTPNSNIIIN
chain 2: B3 chain 1
modifications: Peptide with targeting and/or antimicrobial activity
B4: PF-761 (peptide)
chain 1: SKFELVNYASGCSCGADCKCASETECKCASKK
chain 2: B4 chain 1
modifications: Peptide with targeting and/or antimicrobial activity

What was measured:
P. aeruginosa [1] = assay: Post-antibiotic effect assay, monoculture growth after 10 min treatment; assay type: cell-based, Pseudomonas aeruginosa; conditions: peptide 10 min, then fresh medium
Procedure: (§1) The activity and selectivity of MH-STAMPs after a 10 min incubation was determined by growth retardation experiments against targeted and untargeted bacteria in monocultures, as described previously (Id.). Cells from overnight cultures were diluted to ˜5×10^6 cfu/mL in MH (or TH with 1% sucrose for S. mutans), normalized by OD600 0.05-0.1 and seeded to 96-well plates. Cultures were then grown under the appropriate conditions for 2 h (3 h for S. mutans) prior to the addition of peptides for 10 min. Plates were then centrifuged at 3000×g for 5 min, the supernatants discarded, fresh medium returned (MH or TH without sucrose for S. mutans), and incubation resumed. Bacterial growth after treatment was then monitored over time by OD600.
(§2) MH-STAMP antimicrobial kinetics was ascertained utilizing a variation of the classical post-antibiotic effect assay, which measures the ability of an agent to affect an organism's growth after a short exposure period. Monocultures of MH-STAMP-targeted and untargeted organisms were exposed to M8(KH)-20, M8(BL)-20, BL(KH)-20, or unmodified BD2.20, then allowed to recover. […] Furthermore, replacement of the targeting region with a non-binding peptide abolishes specific activity.

S. epidermidis [2] = assay: Microbial population shift assay, mixed planktonic culture; assay type: cell-based, Staphylococcus epidermidis; conditions: 10 μM peptide, 24 h, detection limit 200 cfu/mL
Procedure: (§3) Peptide (10 μM) or mock-treatment (1×PBS) was then added and samples were incubated at 37° C. for 24 h under anaerobic conditions (80% N2, 15% CO2, 5% H2). […] Plates were then incubated 37° C. under aerobic conditions (TH plates were incubated anaerobically) and colonies counted after 24 h to determine survivors. […] Gram stains and direct microscopic observation (from select isolated colonies) were undertaken to confirm species identity (data not shown). The detection limit of the assay was 200 cfu/mL.
(§4) We hypothesized that potential MH-STAMP dual-functionality could affect a particular set of bacteria within a mixed population, thereby promoting the outgrowth of non-targeted organisms and “shifting” the constituent makeup. To examine this possibility, defined mixed populations of planktonic cells were treated continuously and the make-up of the community examined after 24 h.

S. mutans [3] = assay: Post-antibiotic effect assay, monoculture growth after 10 min treatment; assay type: cell-based, Streptococcus mutans; conditions: peptide 10 min, then fresh medium
Procedure: as §1, §2

S. epidermidis [4] = assay: as above; assay type: cell-based, Staphylococcus epidermidis; conditions: peptide 10 min, then fresh medium
Procedure: as §1, §2

E. coli [5] = assay: as above; assay type: cell-based, Escherichia coli; conditions: peptide 10 min, then fresh medium
Procedure: as §1, §2

S. mutans [6] = assay: Microbial population shift assay, mixed planktonic culture; assay type: cell-based, Streptococcus mutans; conditions: 10 μM peptide, 24 h, detection limit 200 cfu/mL
Procedure: as §3, §4

P. aeruginosa [7] = assay: as above; assay type: cell-based, Pseudomonas aeruginosa; conditions: 10 μM peptide, 24 h, detection limit 200 cfu/mL
Procedure: as §3, §4

S. aureus = assay: Post-antibiotic effect assay, monoculture growth after 10 min treatment; assay type: cell-based, Staphylococcus aureus; conditions: peptide 10 min, then fresh medium
Procedure: as §1, §2

E. coli [8] = assay: Microbial population shift assay, mixed planktonic culture; assay type: cell-based, Escherichia coli; conditions: 10 μM peptide, 24 h, detection limit 200 cfu/mL
Procedure: as §3, §4

bacteria = assay: Binding of targeting peptides to microorganisms (Table 3); conditions: peptide binding in aqueous buffers that varied depending on peptide solubility; preferably 1x PBS
microorganisms [9] = assay: Morphology, biofilm and growth disruption by peptides (Table 5); assay type: cell-based; design: key: A: Peptide aggregates; B: Less hyphal formation; Clumps; Diffuse clumps and small polyps; F: Diffuse growth; H: Thin; I: Growth inhibition; Microcolony formation; Rippled; Small polyps; Thick; W: Halo formation on top, microlonies on bottom
Source text: In certain embodiments peptides that induce alterations in phenotype or other biological activities can also be used as antimicrobial effector moieties.

microorganisms [10] = assay: Peptide activities: binding, antimicrobial, growth or phenotype altering (Table 8)
Source text: In certain embodiments, peptides described herein can have multiple activities. Thus for example, a peptide can have both binding/targeting activity and antimicrobial activity. Such peptides can be used, e.g., in a chimeric construct, for any or all of these properties. Thus, for example, a peptide designated “B” in Table 8 can be used as a targeting peptide. If it is also designated G or M it can also be used for antimicrobial activity.

S. mutans [11] = assay: STAMP activity in formulations (buffer/salt dependence); assay type: cell-based, Streptococcus mutans
Source text: During the course of evaluating STAMPs, antimicrobial peptides (AMPs), and binding peptides for desired activity, it was discovered that certain formulations can attenuate or promote peptide activity, as compared to activity levels in a default buffer system (1×PBS). In some cases, 1×PBS may provide the best level of activity. Below are a number of formulations that alter, or may alter, peptide or STAMP activity. For complex buffer systems, assume the base solvent is water unless otherwise stated.
It was a surprising discovery that certain anti-S. mutans STAMPs required a salt in the formulation (e.g., PBS) for optimum activity. […] Suitable PBS formulations ranged from 0.5×PBS to about 2.5×PBS with an activity optimum at about 1×PBS. Similar results are believed to obtain for other anti-S. mutans STAMPS as well as a number of other STAMPs. In certain embodiments STAMP stability in solution was improved by inclusion of fluoride in mouthrinse.

Row | Molecule | Target(s) (microorganism bound by the targeting peptide) (bacteria) | Organism, effect (morphology, biofilm and growth disruption) (microorganisms [9]; S. mutans) | Activities (microorganisms [10]) | Organism, effect (morphology, biofilm and growth disruption) (microorganisms [9]; S. pneumoniae) | Organism, effect (morphology, biofilm and growth disruption) (microorganisms [9]; M. luteus) | Organism, effect (morphology, biofilm and growth disruption) (microorganisms [9]; MRSA) | other results
1 | CC[C@H](C)[C@H](NC(=O)[C@@H](N)Cc1ccccc1)C(=O)N[C@@H](CCCNC(=N)N)C(=O)N[C@@H](CCCCN)C(=O)N[C@@H](Cc1ccccc1)C(=O)N[C@@H](CC(C)C)C(=O)N[C@@H](CCCCN)C(=O)N[C@@H](CCCCN)C(=O)N[C@@H](Cc1c[nH]c2ccccc12)C(=O)N[C@@H](CC(C)C)C(=O)N[C@@H](CC(C)C)C(N)=O [BD2.20] (H-FIRKFLKKWLL-NH2; N-terminus assumed) |  |  |  |  |  |  | P. aeruginosa growth (OD600) after treatment (P. aeruginosa [1]): robust antimicrobial activity; surviving S. epidermidis cfu/mL (S. epidermidis [2]): significant loss of recoverable cfu/mL; S. mutans growth (OD600) after treatment (S. mutans [3]): robust antimicrobial activity; S. epidermidis growth (OD600) after treatment (S. epidermidis [4]): inhibited; E. coli growth (OD600) after treatment (E. coli [5]): inhibited; surviving S. mutans cfu/mL (S. mutans [6]): significant loss of recoverable cfu/mL; surviving P. aeruginosa cfu/mL (P. aeruginosa [7]): significant loss of recoverable cfu/mL; S. aureus growth (OD600) after treatment (S. aureus): inhibited; surviving E. coli cfu/mL (E. coli [8]): significant loss of recoverable cfu/mL
2 | CC[C@H](C)[C@H](NC(=O)[C@H](Cc1ccccc1)NC(=O)CCCCCCCNC(=O)[C@H](CCCCNC(=O)CNC(=O)CNC(=O)CNC(=O)[C@H](Cc1c[nH]cn1)NC(=O)[C@H](CCCCN)NC(=O)[C@H](CCCNC(=N)N)NC(=O)[C@H](Cc1c[nH]cn1)NC(=O)[C@H](CCCCN)NC(=O)[C@H](CCCNC(=N)N)NC(=O)[C@H](Cc1c[nH]cn1)NC(=O)[C@H](CCCCN)NC(=O)[C@H](CCCNC(=N)N)NC(=O)[C@H](Cc1c[nH]cn1)NC(=O)[C@H](CCCCN)NC(=O)[C@@H](N)CCCCN)NC(=O)CNC(=O)CNC(=O)CNC(=O)[C@H](C)NC(=O)[C@H](CCC(=O)O)NC(=O)[C@H](CC(N)=O)NC(=O)[C@H](C)NC(=O)[C@H](C)NC(=O)[C@H](CC(=O)O)NC(C)=O)C(=O)N[C@@H](CCCNC(=N)N)C(=O)N[C@@H](CCCCN)C(=O)N[C@@H](Cc1ccccc1)C(=O)N[C@@H](CC(C)C)C(=O)N[C@@H](CCCCN)C(=O)N[C@@H](CCCCN)C(=O)N[C@@H](Cc1c[nH]c2ccccc12)C(=O)N[C@@H](CC(C)C)C(=O)N[C@@H](CC(C)C)C(N)=O [BL(KH)-20] (I: Ac-DAANEAGGGK[Aoc]FIRKFLKKWLL-NH2 / II: H-KKHRKHRKHRKHGGG; amide I:10-II:C) |  |  |  |  |  |  | surviving S. epidermidis cfu/mL (S. epidermidis [2]): unchanged numbers; S. mutans growth (OD600) after treatment (S. mutans [3]): not altered; surviving S. mutans cfu/mL (S. mutans [6]): higher than input cfu/mL; surviving P. aeruginosa cfu/mL (P. aeruginosa [7]): not observed; surviving E. coli cfu/mL (E. coli [8]): unchanged numbers
3 | PF-C135 (KNTHAYLRVLRLSSLILSYQASVYPLFAYLCQQKDY; Peptide with targeting and/or antimicrobial activity) | A. naeslundii; also recorded: F. nucleatum; also recorded: P. gingivalis; also recorded: S. mutans | S. mutans (F) | G B |  |  |  | Organism, effect (morphology, biofilm and growth disruption) (microorganisms [9]; F. nucleatum): F. nucleatum (C)
4 | TFFRLFNRSFTQALGKGGGKNLRIIRKGIHIIKKY* (TFFRLFNRSFTQALGKGGGKNLRIIRKGIHIIKKY-NH2) [Peptide C16G2, anti-S. mutans STAMP] |  |  |  |  |  |  | activity optimum (PBS strength) (S. mutans [11]; PBS formulations 0.5×PBS to about 2.5×PBS): about 1 ×PBS; activity (S. mutans [11]; water-based salt-free buffers and nanoemulsions): substantially inactive
5 | B1 | S. epidermidis; also recorded: M. luteus; also recorded: E. coli; also recorded: P. aeruginosa; also recorded: C. albicans; also recorded: S. pneumoniae; also recorded: C. jeikeium |  | G B | S. pneumoniae (H) |  |  | 
6 | B2 | S. epidermidis and M. luteus and E. coli and C. albicans and MRSA and S. pneumoniae and E. faecalis |  | G B | S. pneumoniae (C) | M. luteus (C) | MRSA (D) | Organism, effect (morphology, biofilm and growth disruption) (microorganisms [9]; S. epidermidis): S. epidermidis (M)
7 | B3 | S. epidermidis; also recorded: M. luteus; also recorded: C. albicans | S. mutans (D) | G B | S. pneumoniae (C) | M. luteus (C) | MRSA (C) | 
8 | B4 | S. epidermidis and M. luteus and P. mirabilis and P. aeruginosa and C. albicans and MRSA and S. pneumoniae and E. faecalis | S. mutans (D) | G B | S. pneumoniae (C) | M. luteus (C) | MRSA (D) | Organism, effect (morphology, biofilm and growth disruption) (microorganisms [9]; E. coli): E. coli (C); Organism, effect (morphology, biofilm and growth disruption) (microorganisms [9]; P. aeruginosa): P. aeruginosa (C); Organism, effect (morphology, biofilm and growth disruption) (microorganisms [9]; S. epidermidis): S. epidermidis (C)
